# Reference: paper PMC8298264, “Function of cofactor Akirin2 in the regulation of gene expression in model human neutrophil-like HL60 cells” (Bioscience Reports, 2021)
# B1: sp¦P10515¦ODP2_HUMAN (protein, UniProt P10515 87-647, looked up)
# Dihydrolipoyllysine-residue …: SLPPHQKVPLPSLSPTMQAGTIARWEKKEGDKINEGDLIAEVETDKATVGFESLEECYMAKILVAEGTRDVPIGAIICITVGKPEDIEAFKNYTLDSSAAPTPQAAPAPTPAATASPPTPSAQAPGSSYPPHMQVLLPALSPTMTMGTVQRWEKKVGEKLSEGDLLAEIETDKATIGFEVQEEGYLAKILVPEGTRDVPLGTPLCIIVEKEADISAFADYRPTEVTDLKPQVPPPTPPPVAAVPPTPQPLAPTPSAPCPATPAGPKGRVFVSPLAKKLAVEKGIDLTQVKGTGPDGRITKKDIDSFVPSKVAPAPAAVVPPTGPGMAPVPTGVFTDIPISNIRRVIAQRLMQSKQTIPHYYLSIDVNMGEVLLVRKELNKILEGRSKISVNDFIIKASALACLKVPEANSSWMDTVIRQNHVVDVSVAVSTPAGLITPIVFNAHIKGVETIANDVVSLATKAREGKLQPHEFQGGTFTISNLGMFGIKNFSAIINPPQACILAIGASEDKLVPADNEKGFDVASMMSVTLSCDHRVVDGAVGAQWLAEFRKYLEKPITMLL
# B2: sp¦Q9H9B4¦SFXN1_HUMAN (protein, UniProt Q9H9B4 2-322, looked up)
# Sideroflexin-1: SGELPPNINIKEPRWDQSTFIGRANHFFTVTDPRNILLTNEQLESARKIVHDYRQGIVPPGLTENELWRAKYIYDSAFHPDTGEKMILIGRMSAQVPMNMTITGCMMTFYRTTPAVLFWQWINQSFNAVVNYTNRSGDAPLTVNELGTAYVSATTGAVATALGLNALTKHVSPLIGRFVPFAAVAAANCINIPLMRQRELKVGIPVTDENGNRLGESANAAKQAITQVVVSRILMAAPGMAIPPFIMNTLEKKAFLKRFPWMSAPIQVGLVGFCLVFATPLCCALFPQKSSMSVTSLEAELQAKIQESHPELRRVYFNKGL
# B3: sp¦Q53GQ0¦DHB12_HUMAN (protein, UniProt Q53GQ0 1-312, looked up)
# Very-long-chain 3-oxoacyl-CoA …: MESALPAAGFLYWVGAGTVAYLALRISYSLFTALRVWGVGNEAGVGPGLGEWAVVTGSTDGIGKSYAEELAKHGMKVVLISRSKDKLDQVSSEIKEKFKVETRTIAVDFASEDIYDKIKTGLAGLEIGILVNNVGMSYEYPEYFLDVPDLDNVIKKMININILSVCKMTQLVLPGMVERSKGAILNISSGSGMLPVPLLTIYSATKTFVDFFSQCLHEEYRSKGVFVQSVLPYFVATKLAKIRKPTLDKPSPETFVKSAIKTVGLQSRTNGYLIHALMGSIISNLPSWIYLKIVMNMNKSTRAHYLKKTKKN
# B4: sp¦Q15007¦FL2D_HUMAN (protein, UniProt Q15007 1-396, looked up)
# Pre-mRNA-splicing regulator …: MTNEEPLPKKVRLSETDFKVMARDELILRWKQYEAYVQALEGKYTDLNSNDVTGLRESEEKLKQQQQESARRENILVMRLATKEQEMQECTTQIQYLKQVQQPSVAQLRSTMVDPAINLFFLKMKGELEQTKDKLEQAQNELSAWKFTPDSQTGKKLMAKCRMLIQENQELGRQLSQGRIAQLEAELALQKKYSEELKSSQDELNDFIIQLDEEVEGMQSTILVLQQQLKETRQQLAQYQQQQSQASAPSTSRTTASEPVEQSEATSKDCSRLTNGPSNGSSSRQRTSGSGFHREGNTTEDDFPSSPGNGNKSSNSSEERTGRGGSGYVNQLSAGYESVDSPTGSENSLTHQSNDTDSSHDPQEEKAVSGKGNRTVGSRHVQNGLDSSVNVQGSVL
# B5: sp¦O95104¦SCAF4_HUMAN (protein, UniProt O95104 1-1147, looked up)
# SR-related and CTD-associated …: MDAVNAFNQELFSLMDMKPPISRAKMILITKAAIKAIKLYKHVVQIVEKFIKKCKPEYKVPGLYVIDSIVRQSRHQFGTDKDVFGPRFSKNITATFQYLYLCPSEDKSKIVRVLNLWQKNGVFKIEIIQPLLDMAAGTSNAAPVAENVTNNEGSPPPPVKVSSEPPTQATPNSVPAVPQLPSSDAFAAVAQLFQTTQGQQLQQILQTFQQPPKPQSPALDNAVMAQVQAITAQLKTTPTQPSEQKAAFPPPEQKTAFDKKLLDRFDYDDEPEAVEESKKEDTTAVTTTAPAAAVPPAPTATVPAAAAPAAASPPPPQAPFGFPGDGMQQPAYTQHQNMDQFQPRMMGIQQDPMHHQVPLPPNGQMPGFGLLPTPPFPPMAQPVIPPTPPVQQPFQASFQAQNEPLTQKPHQQEMEVEQPCIQEVKRHMSDNRKSRSRSASRSPKRRRSRSGSRSRRSRHRRSRSRSRDRRRHSPRSRSQERRDREKERERRQKGLPQVKPETASVCSTTLWVGQLDKRTTQQDVASLLEEFGPIESINMIPPRGCAYIVMVHRQDAYRALQKLSRGNYKVNQKSIKIAWALNKGIKADYKQYWDVELGVTYIPWDKVKPEELESFCEGGMLDSDTLNPDWKGIPKKPENEVAQNGGAETSHTEPVSPIPKPLPVPVPPIPVPAPITVPPPQVPPHQPGPPVVGALQPPAFTPPLGIPPPGFGPGVPPPPPPPPFLRPGFNPMHLPPGFLPPGPPPPITPPVSIPPPHTPPISIPNSTIAGINEDTTKDLSIGNPIPTVVSGARGNAESGDSVKMYGSAVPPAAPTNLPTPPVTQPVSLLGTQGVAPGPVIGLQAPSTGLLGARPGLIPLQRPPGMPPPHLQRFPLMPPRPMPPHMMHRGPPPGPGGFAMPPPHGMKGPFPPHGPFVRPGGMPGLGGPGPGPGGPEDRDGRQQPPQQPQQQPQPQAPQQPQQQQQQQPPPSQQPPPTQQQPQQFRNDNRQQFNSGRDQERFGRRSFGNRVENDRERYGNRNDDRDNSNRDRREWGRRSPDRDRHRDLEERNRRSSGHRDRERDSRDRESRREKEEARGKEKPEVTDRAGGNKTVEPPISQVGNVDTASELEKGVSEAAVLKPSEELPAEATSSVEPEKDSGSAAEAPR
# B6: sp¦O75663¦TIPRL_HUMAN (protein, UniProt O75663 1-272, looked up)
# TIP41-like protein: MMIHGFQSSHRDFCFGPWKLTASKTHIMKSADVEKLADELHMPSLPEMMFGDNVLRIQHGSGFGIEFNATDALRCVNNYQGMLKVACAEEWQESRTEGEHSKEVIKPYDWTYTTDYKGTLLGESLKLKVVPTTDHIDTEKLKAREQIKFFEEVLLFEDELHDHGVSSLSVKIRVMPSSFFLLLRFFLRIDGVLIRMNDTRLYHEADKTYMLREYTSRESKISSLMHVPPSLFTEPNEISQYLPIKEAVCEKLIFPERIDPNPADSQKSTQVE
# B7: sp¦P49588¦SYAC_HUMAN (protein, UniProt P49588 1-968, looked up)
# Alanine--tRNA ligase, …: MDSTLTASEIRQRFIDFFKRNEHTYVHSSATIPLDDPTLLFANAGMNQFKPIFLNTIDPSHPMAKLSRAANTQKCIRAGGKHNDLDDVGKDVYHHTFFEMLGSWSFGDYFKELACKMALELLTQEFGIPIERLYVTYFGGDEAAGLEADLECKQIWQNLGLDDTKILPGNMKDNFWEMGDTGPCGPCSEIHYDRIGGRDAAHLVNQDDPNVLEIWNLVFIQYNREADGILKPLPKKSIDTGMGLERLVSVLQNKMSNYDTDLFVPYFEAIQKGTGARPYTGKVGAEDADGIDMAYRVLADHARTITVALADGGRPDNTGRGYVLRRILRRAVRYAHEKLNASRGFFATLVDVVVQSLGDAFPELKKDPDMVKDIINEEEVQFLKTLSRGRRILDRKIQSLGDSKTIPGDTAWLLYDTYGFPVDLTGLIAEEKGLVVDMDGFEEERKLAQLKSQGKGAGGEDLIMLDIYAIEELRARGLEVTDDSPKYNYHLDSSGSYVFENTVATVMALRREKMFVEEVSTGQECGVVLDKTCFYAEQGGQIYDEGYLVKVDDSSEDKTEFTVKNAQVRGGYVLHIGTIYGDLKVGDQVWLFIDEPRRRPIMSNHTATHILNFALRSVLGEADQKGSLVAPDRLRFDFTAKGAMSTQQIKKAEEIANEMIEAAKAVYTQDCPLAAAKAIQGLRAVFDETYPDPVRVVSIGVPVSELLDDPSGPAGSLTSVEFCGGTHLRNSSHAGAFVIVTEEAIAKGIRRIVAVTGAEAQKALRKAESLKKCLSVMEAKVKAQTAPNKDVQREIADLGEALATAVIPQWQKDELRETLKSLKKVMDDLDRASKADVQKRVLEKTKQFIDSNPNQPLVILEMESGASAKALNEALKLFKMHSPQTSAMLFTVDNEAGKITCLCQVPQNAANRGLKASEWVQQVSGLMDGKGGGKDVSAQATGKNVGCLQEALQLATSFAQLRLGDVKN
# B8: sp¦Q9Y5J7¦TIM9_HUMAN (protein, UniProt Q9Y5J7 2-89, looked up)
# Mitochondrial import inner …: AAQIPESDQIKQFKEFLGTYNKLTETCFLDCVKDFTTREVKPEETTCSEHCLQKYLKMTQRISMRFQEYHIQQNEALAAKAGLLGQPR
# B9: sp¦Q09161¦NCBP1_HUMAN (protein, UniProt Q09161 1-790, looked up)
# Nuclear cap-binding protein …: MSRRRHSDENDGGQPHKRRKTSDANETEDHLESLICKVGEKSACSLESNLEGLAGVLEADLPNYKSKILRLLCTVARLLPEKLTIYTTLVGLLNARNYNFGGEFVEAMIRQLKESLKANNYNEAVYLVRFLSDLVNCHVIAAPSMVAMFENFVSVTQEEDVPQVRRDWYVYAFLSSLPWVGKELYEKKDAEMDRIFANTESYLKRRQKTHVPMLQVWTADKPHPQEEYLDCLWAQIQKLKKDRWQERHILRPYLAFDSILCEALQHNLPPFTPPPHTEDSVYPMPRVIFRMFDYTDDPEGPVMPGSHSVERFVIEENLHCIIKSHWKERKTCAAQLVSYPGKNKIPLNYHIVEVIFAELFQLPAPPHIDVMYTTLLIELCKLQPGSLPQVLAQATEMLYMRLDTMNTTCVDRFINWFSHHLSNFQFRWSWEDWSDCLSQDPESPKPKFVREVLEKCMRLSYHQRILDIVPPTFSALCPANPTCIYKYGDESSNSLPGHSVALCLAVAFKSKATNDEIFSILKDVPNPNQDDDDDEGFSFNPLKIEVFVQTLLHLAAKSFSHSFSALAKFHEVFKTLAESDEGKLHVLRVMFEVWRNHPQMIAVLVDKMIRTQIVDCAAVANWIFSSELSRDFTRLFVWEILHSTIRKMNKHVLKIQKELEEAKEKLARQHKRRSDDDDRSSDRKDGVLEEQIERLQEKVESAQSEQKNLFLVIFQRFIMILTEHLVRCETDGTSVLTPWYKNCIERLQQIFLQHHQIIQQYMVTLENLLFTAELDPHILAVFQQFCALQA
# B10: sp¦Q96JJ7¦TMX3_HUMAN (protein, UniProt Q96JJ7 25-454, looked up)
# Protein disulfide-isomerase …: KGFVEDLDESFKENRNDDIWLVDFYAPWCGHCKKLEPIWNEVGLEMKSIGSPVKVGKMDATSYSSIASEFGVRGYPTIKLLKGDLAYNYRGPRTKDDIIEFAHRVSGALIRPLPSQQMFEHMQKRHRVFFVYVGGESPLKEKYIDAASELIVYTYFFSASEEVVPEYVTLKEMPAVLVFKDETYFVYDEYEDGDLSSWINRERFQNYLAMDGFLLYELGDTGKLVALAVIDEKNTSVEHTRLKSIIQEVARDYRDLFHRDFQFGHMDGNDYINTLLMDELTVPTVVVLNTSNQQYFLLDRQIKNVEDMVQFINNILDGTVEAQGGDSILQRLKRIVFDAKSTIVSIFKSSPLMGCFLFGLPLGVISIMCYGIYTADTDGGYIEERYEVSKSENENQEQIEESKEQQEPSSGGSVVPTVQEPKDVLEKKKD
# System: human HL60 cells
# Assay: SWATH-MS proteomics, differential protein representation, akirin2 KO vs WT HL60 cells
# Assay type: cell-based
# Conditions: KO vs WT; akirin2 KO vs WT HL60 cells; sheet "Under-represented in KO"
# In short: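 First, proteins from wild-type and knockout cells are digested with trypsin by FASP. Next, pooled IDA runs generate a reference ion library. Then six samples of 5 µg each are acquired by data-independent SWATH, and protein areas are normalized to the summed area of all detected proteins.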
Molecule,Fold Change,Log (Fold Change)
B1,0.571,-0.2434
B2,0.5707,-0.2436
B3,0.5753,-0.2401
B4,0.593,-0.227
B5,0.586,-0.2321
B6,0.5915,-0.228
B7,0.5997,-0.2221
B8,0.5881,-0.2305

# Same assay, conditions: akirin2 KO vs WT HL60 cells; sheet "Under-represented in KO"
Molecule,Fold Change,Log (Fold Change)
B9,0.2701,-0.5684
B10,0.267,-0.5736
